Measured values published in patent US20250163127A1.
One block for each substance: values may come before it.

Columns and labels:
[1] = biological target: human PD-1 (human) (UniProt Q15116); assay: flow cytometry, cells expressing PD-1, 20 nM
[2] = biological target: human PD-1 (human) (UniProt Q15116)
Target sequence in this assay (Q15116 25-288): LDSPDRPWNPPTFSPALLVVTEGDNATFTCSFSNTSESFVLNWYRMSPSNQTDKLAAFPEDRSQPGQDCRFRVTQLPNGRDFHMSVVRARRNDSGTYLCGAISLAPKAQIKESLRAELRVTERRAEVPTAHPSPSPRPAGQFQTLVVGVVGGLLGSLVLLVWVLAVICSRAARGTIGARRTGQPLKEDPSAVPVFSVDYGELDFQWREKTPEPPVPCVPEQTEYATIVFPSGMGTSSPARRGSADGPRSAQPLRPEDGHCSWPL

[3] = biological target: CD80 (human); assay: flow cytometry, cells expressing CD80, 20 nM
[4] = biological target: T1, TIGIT (human) (UniProt Q495A1); assay: flow cytometry, Fc fusion on Expi293 cells transfected with full-length human TIGIT
T1 sequence: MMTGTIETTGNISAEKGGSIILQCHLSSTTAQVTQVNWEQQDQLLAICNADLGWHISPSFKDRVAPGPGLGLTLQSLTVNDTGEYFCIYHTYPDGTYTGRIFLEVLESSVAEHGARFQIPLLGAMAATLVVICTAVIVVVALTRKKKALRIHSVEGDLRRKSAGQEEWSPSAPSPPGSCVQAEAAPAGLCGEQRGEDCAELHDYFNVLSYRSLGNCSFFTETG

[5] = biological target: T2, CD226 (human) (UniProt Q15762); assay: flow cytometry, Fc fusion on Expi293 cells transfected with full-length human CD226
T2 sequence: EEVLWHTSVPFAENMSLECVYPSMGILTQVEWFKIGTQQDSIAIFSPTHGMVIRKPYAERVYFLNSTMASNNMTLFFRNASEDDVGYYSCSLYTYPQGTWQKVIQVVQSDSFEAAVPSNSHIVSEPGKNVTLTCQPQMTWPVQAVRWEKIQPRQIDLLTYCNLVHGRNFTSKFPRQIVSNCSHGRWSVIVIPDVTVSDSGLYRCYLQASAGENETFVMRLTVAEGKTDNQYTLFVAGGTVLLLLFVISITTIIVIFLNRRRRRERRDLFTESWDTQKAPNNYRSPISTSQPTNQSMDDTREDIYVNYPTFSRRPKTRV

[6] = biological target: human PD-1 (human) (UniProt Q15116); assay: flow cytometry, CHO/PD-1 cells, 100 nM, anti-Flag
Target sequence in this assay (Q15116 25-288): as the sequence (Q15116 25-288) above

[7] = biological target: human CTLA-4 (human); assay: flow cytometry, CHO/CTLA-4 cells, 100 nM, anti-Flag
[8] = biological target: T1, TIGIT (human); assay: flow cytometry on transfected HEK293 cells, 100 nM
[9] = biological target: ICOS, full-length, expressed on transfected cells (Homo sapiens (Human)) (UniProt Q9Y6W8); assay: flow cytometry, cells expressing target
[10] = biological target: CTLA-4, full-length, expressed on transfected cells (Homo sapiens (Human)) (UniProt P16410); assay: flow cytometry, cells expressing target
[11] = biological target: CD28, full-length, expressed on transfected cells (Homo sapiens (Human)) (UniProt P10747); assay: flow cytometry, cells expressing target
[12] = biological target: T3, human ICOSL (human); assay: flow cytometry, cells expressing human ICOSL
T3 sequence: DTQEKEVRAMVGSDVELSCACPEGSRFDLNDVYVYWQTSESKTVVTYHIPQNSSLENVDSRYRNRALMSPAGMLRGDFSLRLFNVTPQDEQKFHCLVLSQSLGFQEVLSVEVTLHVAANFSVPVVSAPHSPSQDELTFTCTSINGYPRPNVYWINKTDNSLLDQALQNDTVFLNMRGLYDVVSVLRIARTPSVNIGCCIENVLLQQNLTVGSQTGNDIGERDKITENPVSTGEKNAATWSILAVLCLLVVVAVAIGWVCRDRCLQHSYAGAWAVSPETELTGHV

[13] = biological target: T1, TIGIT (human); assay: flow cytometry, transfected HEK293
[14] = biological target: T4, CD96 (human) (UniProt P40200); assay: flow cytometry, transfected HEK293
T4 sequence: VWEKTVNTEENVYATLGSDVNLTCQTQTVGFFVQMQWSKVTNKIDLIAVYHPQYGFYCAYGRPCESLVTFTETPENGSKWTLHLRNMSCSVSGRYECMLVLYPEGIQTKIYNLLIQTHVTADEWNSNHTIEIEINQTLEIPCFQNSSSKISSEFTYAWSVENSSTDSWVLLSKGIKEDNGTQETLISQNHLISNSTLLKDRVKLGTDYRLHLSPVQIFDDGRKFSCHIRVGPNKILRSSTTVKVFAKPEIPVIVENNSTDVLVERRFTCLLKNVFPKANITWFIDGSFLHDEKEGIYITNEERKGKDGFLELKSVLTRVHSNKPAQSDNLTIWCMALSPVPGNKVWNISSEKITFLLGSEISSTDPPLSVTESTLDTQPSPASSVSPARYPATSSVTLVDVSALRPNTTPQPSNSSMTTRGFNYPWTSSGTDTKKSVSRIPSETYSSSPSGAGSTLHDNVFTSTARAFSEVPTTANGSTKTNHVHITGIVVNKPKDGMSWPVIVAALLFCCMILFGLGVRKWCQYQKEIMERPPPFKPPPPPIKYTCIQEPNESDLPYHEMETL

[15] = biological target: CD112R (human) (UniProt Q6DKI7); assay: flow cytometry, transfected HEK293
[16] = biological target: T2, CD226 (human); assay: flow cytometry, transfected HEK293
[17] = biological target: T4, CD96 (human); assay: flow cytometry, CD96-transfected Expi293 cells
[18] = biological target: T2, CD226 (human); assay: flow cytometry, CD226-transfected Expi293 cells
[19] = biological target: T4, CD96 (human); assay: flow cytometry, CD96-transfected Expi293 cells; ratio to wild-type CD155
[20] = biological target: T1, TIGIT (human); assay: flow cytometry, TIGIT-transfected Expi293 cells
[21] = biological target: T5, ICOSL (human) (UniProt O75144); assay: flow cytometry, cells expressing the partner
T5 sequence: T3 sequence

[22] = biological target: CD86 (human) (UniProt P42081); assay: flow cytometry, cells expressing the partner
[23] = biological target: CD80 (human) (UniProt P33681); assay: flow cytometry, cells expressing the partner
[24] = biological target: CD28 (human) (UniProt P10747); assay: flow cytometry on HEK293 cells transfected with CD28
[25] = biological target: CD112R (human) (UniProt Q6DKI7); assay: flow cytometry, Fc fusion on Expi293 cells transfected with full-length human CD112R

CD112R (human), sequence (Q6DKI7 whole entry, the tested form may be a part): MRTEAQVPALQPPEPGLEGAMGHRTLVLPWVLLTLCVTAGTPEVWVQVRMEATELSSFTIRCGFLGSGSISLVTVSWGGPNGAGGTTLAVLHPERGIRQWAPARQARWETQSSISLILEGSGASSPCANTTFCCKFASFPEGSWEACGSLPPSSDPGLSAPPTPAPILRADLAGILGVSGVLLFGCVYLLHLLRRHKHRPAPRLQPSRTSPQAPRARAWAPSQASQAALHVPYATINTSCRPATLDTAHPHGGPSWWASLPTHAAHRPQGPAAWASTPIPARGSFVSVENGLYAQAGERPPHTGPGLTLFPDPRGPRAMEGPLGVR
WT CD112 IgV (Fc fusion), sequence (chain): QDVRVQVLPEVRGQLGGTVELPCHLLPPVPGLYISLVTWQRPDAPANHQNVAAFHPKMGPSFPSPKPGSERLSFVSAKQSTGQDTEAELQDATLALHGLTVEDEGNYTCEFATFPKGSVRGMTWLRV
CD80 (human) (UniProt P33681), sequence (P33681 35-288): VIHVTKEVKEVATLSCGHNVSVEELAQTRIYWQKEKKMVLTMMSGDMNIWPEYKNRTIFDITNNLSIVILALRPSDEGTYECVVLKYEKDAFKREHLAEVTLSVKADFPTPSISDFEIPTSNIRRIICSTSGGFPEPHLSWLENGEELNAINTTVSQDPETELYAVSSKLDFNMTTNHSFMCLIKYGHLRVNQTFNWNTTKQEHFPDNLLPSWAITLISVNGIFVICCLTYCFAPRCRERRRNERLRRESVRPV
ICOS, full-length, expressed on transfected cells (Homo sapiens (Human)), sequence (Q9Y6W8 21-199 limits assumed): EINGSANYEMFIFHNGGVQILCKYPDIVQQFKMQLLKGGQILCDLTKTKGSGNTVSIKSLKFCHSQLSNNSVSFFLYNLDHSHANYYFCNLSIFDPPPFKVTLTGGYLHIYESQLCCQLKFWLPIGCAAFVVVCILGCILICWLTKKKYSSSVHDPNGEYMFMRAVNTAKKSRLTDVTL
Wildtype CD112-IgV Fc (Fc fusion), sequence (chain): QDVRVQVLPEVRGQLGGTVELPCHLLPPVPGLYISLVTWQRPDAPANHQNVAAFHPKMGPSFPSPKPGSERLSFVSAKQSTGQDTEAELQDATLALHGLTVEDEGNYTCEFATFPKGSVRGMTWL
human CTLA-4 (human), sequence (chain, as listed by the source): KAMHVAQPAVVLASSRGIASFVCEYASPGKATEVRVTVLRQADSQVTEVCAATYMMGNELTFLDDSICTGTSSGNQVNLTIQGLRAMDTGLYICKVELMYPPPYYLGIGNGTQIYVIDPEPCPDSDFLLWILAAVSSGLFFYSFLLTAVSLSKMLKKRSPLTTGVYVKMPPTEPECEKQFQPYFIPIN
CTLA-4, full-length, expressed on transfected cells (Homo sapiens (Human)), sequence (P16410 36-223): as the sequence (chain, as listed by the source) above
WT CD80 ECD-Fc (Fc fusion), sequence (chain): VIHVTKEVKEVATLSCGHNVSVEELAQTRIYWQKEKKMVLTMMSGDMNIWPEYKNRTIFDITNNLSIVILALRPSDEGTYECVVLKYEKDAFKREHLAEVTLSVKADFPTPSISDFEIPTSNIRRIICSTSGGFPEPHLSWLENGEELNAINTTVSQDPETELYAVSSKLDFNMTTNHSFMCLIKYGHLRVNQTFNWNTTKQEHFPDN
Wild Type PD-L2 IgV Fc fusion, sequence (chain): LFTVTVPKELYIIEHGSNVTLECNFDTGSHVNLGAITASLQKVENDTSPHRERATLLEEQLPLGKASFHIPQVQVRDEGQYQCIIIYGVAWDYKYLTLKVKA
CTLA4-Fc, sequence (P16410 37-162 limits assumed): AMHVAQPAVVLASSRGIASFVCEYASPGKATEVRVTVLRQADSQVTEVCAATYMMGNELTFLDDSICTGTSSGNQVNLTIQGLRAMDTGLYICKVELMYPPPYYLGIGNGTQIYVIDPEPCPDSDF

Substance: variant PD-L1 V129D/H202Q Fc fusion
MFI at 20 nM [1]: 2000 MFI

Substance: variant PD-L2 IgV H15Q/T47A/H69L/Q82R/V89D Fc fusion
IFN gamma levels pg/mL (MLR) [2]: 1730 pg/mL

Substance: Wildtype CD112-IgV Fc (Fc fusion)
MFI at 100 nM [8]: 82400 MFI

Substance: ICOSL ECD-Fc F138L/L203P (Fc fusion)
MFI [9]: 53800 MFI | MFI [10]: 2150 MFI | MFI [11]: 1510 MFI

Substance: variant CTLA-4 ECD-Fc G29W/M56T/L98Q/Y105L (Fc fusion)
MFI [12]: 612 MFI

Substance: variant CTLA-4 ECD-Fc G29W/M56T/S72G/L98Q/Y105L (Fc fusion)
MFI [12]: 534 MFI

Substance: CD155 IgV-Fc A81V, L83P (Fc fusion)
MFI [17]: 2620 | MFI [20]: 2910

Substance: CTLA-4 ECD-Fc L98Q/Y105L (Fc fusion)
MFI [21]: 1190 MFI | MFI [22]: 685000 MFI | MFI [23]: 3860 MFI

Substance: WT CD80 ECD-Fc (Fc fusion)
MFI at 66.6 nM [24]: 24800 MFI

Substance: variant CTLA-4 ECD-Fc M56T/L98Q/Y105L (Fc fusion)
MFI [12]: 700 MFI

Other lines, results leading:

MFI at 20 nM [3]: 132 MFI | MFI at 20 nM [1]: 59 MFI
Substance: Fc Control

MFI [4]: 99000 MFI | MFI [5]: 231000 MFI
Substance: CD112 Y33H, A112V (Fc fusion)

MFI [6]: 26200 | MFI [7]: 152
Substance: PD-L2 1417 (monomeric variant PD-L2 IgV H15Q/T47A/K65R/S67L/Q82R/V89D) (ligand)

MFI at 20 nM [3]: 128 MFI
Substance: variant PD-L1 G15A/V129D Fc fusion

MFI at 20 nM [13]: 34900 | MFI at 20 nM [14]: 2500 | MFI at 20 nM [15]: 1660 | MFI at 20 nM [16]: 10800
Substance: WT CD112 IgV (Fc fusion)

MFI [17]: 3280 | MFI [18]: 5140 | MFI parental ratio [19]: 1.1 | MFI [20]: 4070
Substance: CD155 IgV-Fc P18L, L79V, F91S (Fc fusion)

MFI at 20 nM [3]: 128 MFI | MFI at 20 nM [1]: 120 MFI
Substance: variant PD-L1 I36T/M97L/A103V/Q155H Fc fusion

IFN gamma levels pg/mL (MLR) [2]: 1380 pg/mL
Substance: Wild Type PD-L2 IgV Fc fusion

MFI [21]: 891 MFI | MFI [22]: 500000 MFI | MFI [23]: 2400 MFI
Substance: CTLA-4 ECD-Fc L12P/A26T/L63P (Fc fusion)

MFI [5]: 152000 MFI
Substance: CD112 A112V (Fc fusion)

Fold Increase to WT IgV [13]: 5.09 fold | MFI at 20 nM [13]: 178000 | Fold Increase to WT IgV [14]: 1.25 fold | MFI at 20 nM [14]: 3120 | Fold Increase to WT IgV [15]: 0.69 fold | MFI at 20 nM [15]: 1150 | Fold Increase to WT IgV [16]: 1.28 fold | MFI at 20 nM [16]: 13800
Substance: CD112 IgV-Fc Y33H/A112V (Fc fusion)

MFI at 20 nM [3]: 200000 MFI
Substance: CTLA4-Fc (from UniProt P16410) (Fc fusion)

MFI [4]: 6040 MFI | MFI [25]: 1970 MFI | MFI parental ratio (parental ratio) [25]: 1.36 | MFI [5]: 15300 MFI | MFI parental ratio (parental ratio) [5]: 0.06
Substance: CD112 N106Y, A112V (Fc fusion)
